Laboratory results: ChEMBL document CHEMBL2073859, “Transport of 7-ethyl-10-hydroxycamptothecin (SN-38) by breast cancer resistance protein ABCG2 in human lung cancer cells” (Biochem Biophys Res Commun, 2001)

Columns and labels:
[1] = substrate: CCc1c2c(nc3ccc(OC[C@@H]4O[C@H](C(=O)O)[C@@H](O)[C@H](O)[C@H]4O)cc13)-c1cc3c(c(=O)n1C2)COC(=O)[C@]3(O)CC; experiment: (§1) TP_TRANSPORTER: uptake in membrane vesicle from PC-6/SN2-5H cells; type: functional, cell membranes
[2] = substrate: CCc1c2c(nc3ccc(O)cc13)-c1cc3c(c(=O)n1C2)COC(=O)[C@]3(O)CC; experiment: as §1; type: functional, cell membranes

B1: Broad substrate specificity ATP-binding cassette transporter ABCG2 (Homo sapiens) (protein)
chain: MSSSNVEVFIPVSQGNTNGFPATASNDLKAFTEGAVLSFHNICYRVKLKSGFLPCRKPVEKEILSNINGIMKPGLNAILGPTGGGKSSLLDVLAARKDPSGLSGDVLINGAPRPANFKCNSGYVVQDDVVMGTLTVRENLQFSAALRLATTMTNHEKNERINRVIQELGLDKVADSKVGTQFIRGVSGGERKRTSIGMELITDPSILFLDEPTTGLDSSTANAVLLLLKRMSKQGRTIIFSIHQPRYSIFKLFDSLTLLASGRLMFHGPAQEALGYFESAGYHCEAYNNPADFFLDIINGDSTAVALNREEDFKATEIIEPSKQDKPLIEKLAEIYVNSSFYKETKAELHQLSGGEKKKKITVFKEISYTTSFCHQLRWVSKRSFKNLLGNPQASIAQIIVTVVLGLVIGAIYFGLKNDSTGIQNRAGVLFFLTTNQCFSSVSAVELFVVEKKLFIHEYISGYYRVSSYFLGKLLSDLLPMRMLPSIIFTCIVYFMLGLKPKADAFFVMMFTLMMVAYSASSMALAIAAGQSVVSVATLLMTICFVFMMIFSGLLVNLTTIASWLSWLQYFSIPRYGFTALQHNEFLGQNFCPGLNATGNNPCNYATCTGEEYLVKQGIDLSPWGLWKNHVALACMIVIFLTIAYLKLLFLKKYS
Km [1]: 26 µM
Km [2]: 4 µM
